Results taken from paper PMC3577887, “Multiple Consequences of a Single Amino Acid Pathogenic RTK Mutation: The A391E Mutation in FGFR3” (PLoS ONE, 2013).

Target: the molecule itself
Test: cross-linking; 2 mM BS3 (membrane-impermeable) on starved HEK 293 T cells transfected with 1 µg DNA, room temperature, no ligand; Western blot with anti-FGFR3; cross-linked fraction SD/(SM+SD) with the 130 kDa monomer band

B1: FGFR3 carrying the A391E mutation (Crouzon syndrome with Acanthosis Nigricans) (receptor)
chain: ESLGTEQRVVGRAAEVPGPEPGQQEQLVFGSGDAVELSCPPPGGGPMGPTVWVKDGTGLVPSERVLVGPQRLQVLNASHEDSGAYSCRQRLTQRVLCHFSVRVTDAPSSGDDEDGEDEAEDTGVDTGAPYWTRPERMDKKLLAVPAANTVRFRCPAAGNPTPSISWLKNGREFRGEHRIGGIKLRHQQWSLVMESVVPSDRGNYTCVVENKFGSIRQTYTLDVLERSPHRPILQAGLPANQTAVLGSDVEFHCKVYSDAQPHIQWLKHVEVNGSKVGPDGTPYVTVLKTAGANTTDKELEVLSLHNVTFEDAGEYTCLAGNSIGFSHHSAWLVVLPAEEELVEADEAGSVYAGILSYGVGFFLFILVVEAVTLCRLRSPPKKGLGSPTVHKISRFPLKRQVSLESNASMSSNTPLVRIARLSSGEGPTLANVSELELPADPKWELSRARLTLGKPLGEGCFGQVVMAEAIGIDKDRAAKPVTVAVKMLKDDATDKDLSDLVSEMEMMKMIGKHKNIINLLGACTQGGPLYVLVEYAAKGNLREFLRARRPPGLDYSFDTCKPPEEQLTFKDLVSCAYQVARGMEYLASQKCIHRDLAARNVLVTEDNVMKIADFGLARDVHNLDYYKKTTNGRLPVKWMAPEALFDRVYTHQSDVWSFGVLLWEIFTLGGSPYPGIPVEELFKLLKEGHRMDKPANCTHDLYMIMRECWHAAPSQRPTFKQLVEDLDRVLTVTSTDEYLDLSAPFEQYSPGGQDTPSSSSSGDDSVFAHDLLPPAPPSSGGSRT
notes: fibroblast growth factor receptor 3, human, with the pathogenic transmembrane-domain mutation A391E; full-length receptor; the mature 130 kDa form in the plasma membrane was quantified; Made from the FGFR3/WT plasmid by site-directed mutagenesis; the mutation occurs in patients; also called FGFR3/A391E; A391E mutant; source: HEK 293 T, transiently transfected (pcDNA 3.1+, Fugene 6), on cells
  stoichiometry N: 2
